Here are results for four molecules from US20040087497A1 (Bristol-Myers Squibb, published 2004).

Assay in all cases: cell-based or functional assay
The target of test [1] is T1, human CD10 (human, UniProt P08473 2-750).
The target of test [2] is Prostate Specific Antigen (PSA) (human, UniProt P07288 25-261).
The target of test [3] is T1, human CD10. The source holds these as a separate data set.
Test [4] deals with T1, human CD10. This is another data set of the same source.
In test [5] the target is T1, human CD10. This is another data set of the same source.
Test [6] concerns the target T1, human CD10. This is another data set of the same source.
The target in test [7] is T1, human CD10. The source holds these as a separate data set.
The target of test [8] is T1, human CD10. The source holds these as a separate data set.

Starred links: 1 amine or outer side, 2 acyl side, 3 side chain; linkers in the order of their positions; H or OH if unused. Non-standard residues stand in square brackets, D forms with d. Suc = O=C(CCC(=O)[*:2])[*:1]; Dox = doxorubicin; βAla = NCCC(=O)O

T1 sequence (P08473 2-750): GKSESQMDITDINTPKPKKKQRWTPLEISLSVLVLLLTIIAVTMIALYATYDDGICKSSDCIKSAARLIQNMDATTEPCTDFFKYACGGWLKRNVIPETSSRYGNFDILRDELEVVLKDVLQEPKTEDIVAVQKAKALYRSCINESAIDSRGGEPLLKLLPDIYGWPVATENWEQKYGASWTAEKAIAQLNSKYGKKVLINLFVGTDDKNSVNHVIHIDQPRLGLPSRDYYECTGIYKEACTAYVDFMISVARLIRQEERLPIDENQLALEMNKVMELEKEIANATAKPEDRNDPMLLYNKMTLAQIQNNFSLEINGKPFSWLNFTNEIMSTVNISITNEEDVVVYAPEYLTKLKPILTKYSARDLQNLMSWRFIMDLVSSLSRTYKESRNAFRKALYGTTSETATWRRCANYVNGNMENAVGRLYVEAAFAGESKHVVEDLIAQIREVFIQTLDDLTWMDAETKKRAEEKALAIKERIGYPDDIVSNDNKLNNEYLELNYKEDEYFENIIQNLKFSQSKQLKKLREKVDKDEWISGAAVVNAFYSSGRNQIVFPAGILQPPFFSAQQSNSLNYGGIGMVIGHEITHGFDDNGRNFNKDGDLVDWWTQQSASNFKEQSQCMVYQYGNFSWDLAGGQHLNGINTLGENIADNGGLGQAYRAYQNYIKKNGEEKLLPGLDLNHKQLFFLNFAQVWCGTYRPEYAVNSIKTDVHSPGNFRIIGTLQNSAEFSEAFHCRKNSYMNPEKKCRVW
Sequence of Prostate Specific Antigen (PSA) (P07288 25-261 limits assumed): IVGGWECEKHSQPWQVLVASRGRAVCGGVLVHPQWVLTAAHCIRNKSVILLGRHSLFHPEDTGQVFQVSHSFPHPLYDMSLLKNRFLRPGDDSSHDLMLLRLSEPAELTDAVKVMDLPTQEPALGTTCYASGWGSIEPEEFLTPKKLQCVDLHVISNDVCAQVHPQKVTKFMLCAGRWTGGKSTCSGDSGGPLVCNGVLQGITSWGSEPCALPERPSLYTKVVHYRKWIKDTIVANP

As to Suc-Ile-Ala-Leu-Dox [Suc-Ile-Ala-Leu-Dox], the “IC50, 3H-thymidine proliferation, LnCAP cells (CD10+ PSA+)” value with human CD10 [1] amounted to 0.17 mM. The “IC50, 3H-thymidine proliferation, 22RV1 cells (CD10- PSA+)” value in test [2] turned out to be 14 mM.
Take Suc-Leu-Ala-Gly-Dox [Suc-Leu-Ala-Gly-Dox]: in the test with human CD10 [3], the “IC50, proliferation of HL60 cells with supernatant of compound-treated CHO Clone 8 (CD10 Pos.)” value is > 25 µM and the “IC50, proliferation of HL60 cells with supernatant of compound-treated CHO Clone DB4 (CD10 Pos.)” value is > 25 µM.
On to Suc-[βAla]IAL-Dox [Suc-βAla-Ile-Ala-Leu-Dox], for which, in the test with human CD10 [4], the “IC50 on LNCaP cells (CD10pos) with 0 nM phosphoramidon” value was 0.24 µM, the “IC50 on LNCaP cells (CD10pos) with 30 nM phosphoramidon” value was determined as 1.3 µM, the “IC50 on LNCaP cells (CD10pos) with 100 nM phosphoramidon” value stood at 3.3 µM and the “IC50 on LNCaP cells (CD10pos) with 300 nM phosphoramidon” value was found to be 7.7 µM. In addition, in the test with human CD10 [4], the “IC50 on LNCaP cells (CD10pos) with 1000 nM phosphoramidon” value is 11.3 µM, the “IC50 on LNCaP cells (CD10pos) with 3000 nM phosphoramidon” value was 15.4 µM, the “IC50 on Ramos cells (CD10pos) with 0 nM phosphoramidon” value stood at 0.51 µM and the “IC50 on Ramos cells (CD10pos) with 30 nM phosphoramidon” value amounted to 2.1 µM. For the same molecule, in the test with human CD10 [4], the “IC50 on Ramos cells (CD10pos) with 100 nM phosphoramidon” value was 5.3 µM, the “IC50 on Ramos cells (CD10pos) with 300 nM phosphoramidon” value came out at 8.1 µM, the “IC50 on Ramos cells (CD10pos) with 1000 nM phosphoramidon” value stood at 9.7 µM and the “IC50 on Ramos cells (CD10pos) with 3000 nM phosphoramidon” value was 10.5 µM. Besides, in the test with human CD10 [5], the “IC50 on LNCaP cells (CD10pos) with DL-Thiorphan 0” value was 0.51 µM, the “IC50 on LNCaP cells (CD10pos) with DL-Thiorphan 30” value is 2.1 µM, the “IC50 on LNCaP cells (CD10pos) with DL-Thiorphan 100” value is 5.3 µM and the “IC50 on LNCaP cells (CD10pos) with DL-Thiorphan 300” value was 8.1 µM. For the same molecule, in the test with human CD10 [5], the “IC50 on LNCaP cells (CD10pos) with DL-Thiorphan 1000” value was determined as 9.7 µM, the “IC50 on LNCaP cells (CD10pos) with DL-Thiorphan 3000” value was found to be 10.5 µM, the “IC50 on Ramos cells (CD10pos) with DL-Thiorphan 0” value came out at 0.25 µM and the “IC50 on Ramos cells (CD10pos) with DL-Thiorphan 30” value was found to be 0.27 µM. Besides, in the test with human CD10 [5], the “IC50 on Ramos cells (CD10pos) with DL-Thiorphan 100” value is 0.31 µM, the “IC50 on Ramos cells (CD10pos) with DL-Thiorphan 300” value was found to be 0.28 µM, the “IC50 on Ramos cells (CD10pos) with DL-Thiorphan 1000” value came to 0.44 µM and the “IC50 on Ramos cells (CD10pos) with DL-Thiorphan 3000” value was 1.1 µM. For the same molecule, the “IC50, 3H-thymidine proliferation, LnCAP cells (CD10+ PSA+)” value with human CD10 [1] was 0.15 mM. Besides, in test [2], the “IC50, 3H-thymidine proliferation, 22RV1 cells (CD10- PSA+)” value amounted to 10.8 mM. Also, in the test with human CD10 [6], the “Ratio of IC50 Suc-β-Ala-Ile-Ala-Leu/Dox, CD10 transfected CHO Clone #7” value is 17 ratio; the “Ratio of IC50 Suc-β-Ala-Ile-Ala-Leu/Dox, CD10 transfected CHO Clone #8” value turned out to be 15 ratio; the “Ratio of IC50 Suc-β-Ala-Ile-Ala-Leu/Dox, CD10 transfected CHO clone DB4” value is 14 ratio; the “Ratio of IC50 Suc-β-Ala-Ile-Ala-Leu/Dox, LnCap cells” value stood at 3 ratio. Also, in the test with human CD10 [7], the “IC50, 3H thymidine proliferation, CD10 transfected CHO Clone #3” value turned out to be 19 mM; the “IC50, 3H thymidine proliferation, CD10 transfected CHO Clone #5” value was found to be 19 mM; the “IC50, 3H thymidine proliferation, CD10 transfected CHO Clone #7” value was determined as 11 mM; the “IC50, 3H thymidine proliferation, CD10 transfected CHO Clone #8” value was found to be 8.4 mM. In the test with human CD10 [7], the “IC50, 3H thymidine proliferation, CD10 transfected CHO clone DB4” value is 4.2 mM; the “IC50, 3H thymidine proliferation, LnCap cells (CD10 positive)” value stood at 0.39 mM; the “IC50, 3H thymidine proliferation, Ramos cells” value turned out to be 0.44 mM. Besides, the “difference between IC50 of Dox and of Suc-βAla-Ile-Ala-Leu-Dox, CD10 transfected CHO cells” value with human CD10 [8] is ~16 fold. In the test with human CD10 [3], the “IC50, proliferation of HL60 cells with supernatant of compound-treated CHO Clone 8 (CD10 Pos.)” value is 2.7 µM and the “IC50, proliferation of HL60 cells with supernatant of compound-treated CHO Clone DB4 (CD10 Pos.)” value worked out at 5.4 µM.
For Suc-[βAla]LAL-Dox [Suc-βAla-Leu-Ala-Leu-Dox], in the test with human CD10 [7], the “IC50, 3H thymidine proliferation, CD10 transfected CHO Clone #3” value stood at 19 mM; the “IC50, 3H thymidine proliferation, CD10 transfected CHO Clone #5” value came out at 24 mM; the “IC50, 3H thymidine proliferation, CD10 transfected CHO Clone #7” value stood at 13 mM; the “IC50, 3H thymidine proliferation, CD10 transfected CHO Clone #8” value was 10 mM. In addition, in the test with human CD10 [7], the “IC50, 3H thymidine proliferation, CD10 transfected CHO clone DB4” value is 5.4 mM; the “IC50, 3H thymidine proliferation, LnCap cells (CD10 positive)” value turned out to be 0.51 mM; the “IC50, 3H thymidine proliferation, Ramos cells” value was 0.84 mM. Besides, the “shift of IC50 on LNCaP cells treated with 100 nM of phosphoramidon” value with human CD10 [8] was determined as 7 fold.
